The target of this experiment is wild-type human dopamine transporter (human) (UniProt Q01959).

Consider one substance from article PMC4890318.

Sequence of UniProt Q01959 (Q01959 whole entry): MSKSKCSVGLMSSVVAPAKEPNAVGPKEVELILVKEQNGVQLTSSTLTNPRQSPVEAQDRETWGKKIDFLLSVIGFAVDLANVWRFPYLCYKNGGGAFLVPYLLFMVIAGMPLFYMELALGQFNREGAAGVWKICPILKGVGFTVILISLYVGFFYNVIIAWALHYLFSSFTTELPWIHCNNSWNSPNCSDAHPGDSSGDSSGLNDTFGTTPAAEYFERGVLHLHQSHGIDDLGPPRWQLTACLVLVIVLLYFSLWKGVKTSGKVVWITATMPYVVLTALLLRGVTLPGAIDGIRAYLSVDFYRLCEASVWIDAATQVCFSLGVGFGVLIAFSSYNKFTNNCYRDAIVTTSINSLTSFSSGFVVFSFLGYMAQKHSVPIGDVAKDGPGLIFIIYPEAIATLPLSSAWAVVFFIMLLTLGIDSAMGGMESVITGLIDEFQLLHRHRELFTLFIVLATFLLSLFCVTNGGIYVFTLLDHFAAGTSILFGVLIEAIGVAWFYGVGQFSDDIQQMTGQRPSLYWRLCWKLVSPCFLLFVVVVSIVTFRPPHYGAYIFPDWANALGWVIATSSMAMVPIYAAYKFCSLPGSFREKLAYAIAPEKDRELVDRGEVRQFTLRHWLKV

“recombinant HIV-1 Tat 1-86 (from UniProt P04608 1-86) (natural protein)” gave a decrease of [3H]DA uptake in PC12 cells transfected with WT hDAT after 20 min preincubation with 140 nM Tat1-86, against control without Tat of 35%.
